Measurements reported in US20220112291A1.

Molecular target: human CD1a expressed on cells (human) (UniProt P06126)
Experiment: cell-based or functional assay

Sequence of human CD1a expressed on cells (human) (P06126 17-327): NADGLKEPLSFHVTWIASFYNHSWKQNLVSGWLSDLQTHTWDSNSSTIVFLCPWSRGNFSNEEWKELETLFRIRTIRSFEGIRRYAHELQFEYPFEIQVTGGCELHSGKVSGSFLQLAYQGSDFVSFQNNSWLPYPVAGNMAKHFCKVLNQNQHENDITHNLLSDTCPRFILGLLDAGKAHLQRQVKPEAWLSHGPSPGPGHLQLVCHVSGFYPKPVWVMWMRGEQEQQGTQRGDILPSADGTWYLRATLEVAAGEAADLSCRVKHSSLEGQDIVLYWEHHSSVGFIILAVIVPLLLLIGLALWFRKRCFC

## Human IgG1 (EFN) isotype control (antibody)
  CD69 expression, IC50: > 100 nM
  IL-2 secretion, IC50: > 100 nM

## OKT6-human IgG1 (EFN) (antibody)
  CD69 expression, IC50: 0.042 nM
  IL-2 secretion, IC50: 0.028 nM
